In patent publication US20050215503, “HIF oligonucleotide decoy molecules” (published 2005):

Molecular target: HIF-1 (HIF-1alpha/HIF-1beta (ARNT) heterodimer) (UniProt Q16665;P27540 Q16665:1-826,P27540:2-789)
Experiment: competition; TransAM absorbance ratio vs wild-type control at 2.5; lower = better (all Table 2B lines); 1.22 in Table 5
Conditions: protein: extract; tags: none (endogenous, nuclear extract)

Sequence of HIF-1 (HIF-1alpha/HIF-1beta (ARNT) heterodimer) (Q16665 whole entry, chain 1 of 2): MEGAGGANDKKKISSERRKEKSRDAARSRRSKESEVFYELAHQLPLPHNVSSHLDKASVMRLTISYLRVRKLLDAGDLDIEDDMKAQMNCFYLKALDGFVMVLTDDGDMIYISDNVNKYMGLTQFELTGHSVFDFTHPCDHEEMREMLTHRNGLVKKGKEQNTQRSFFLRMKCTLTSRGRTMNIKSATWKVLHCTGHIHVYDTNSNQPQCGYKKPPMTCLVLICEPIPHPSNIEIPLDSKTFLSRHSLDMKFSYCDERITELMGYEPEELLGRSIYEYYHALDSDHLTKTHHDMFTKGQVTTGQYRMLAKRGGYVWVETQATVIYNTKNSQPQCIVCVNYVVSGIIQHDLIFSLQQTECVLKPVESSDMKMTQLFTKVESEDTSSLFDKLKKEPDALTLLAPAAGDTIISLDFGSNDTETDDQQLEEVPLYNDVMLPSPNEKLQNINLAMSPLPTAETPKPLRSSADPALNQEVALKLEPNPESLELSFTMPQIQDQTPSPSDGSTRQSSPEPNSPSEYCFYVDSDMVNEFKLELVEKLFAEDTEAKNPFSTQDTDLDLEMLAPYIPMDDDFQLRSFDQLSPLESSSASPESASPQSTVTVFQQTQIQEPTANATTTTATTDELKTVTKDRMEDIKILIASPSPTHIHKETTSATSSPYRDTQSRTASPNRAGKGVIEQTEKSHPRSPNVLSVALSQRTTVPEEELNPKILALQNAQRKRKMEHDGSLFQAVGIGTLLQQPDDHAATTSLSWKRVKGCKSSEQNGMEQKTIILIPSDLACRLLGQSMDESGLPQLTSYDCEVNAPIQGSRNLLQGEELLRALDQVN
Sequence of HIF-1 (HIF-1alpha/HIF-1beta (ARNT) heterodimer) (P27540 2-789, chain 2 of 2): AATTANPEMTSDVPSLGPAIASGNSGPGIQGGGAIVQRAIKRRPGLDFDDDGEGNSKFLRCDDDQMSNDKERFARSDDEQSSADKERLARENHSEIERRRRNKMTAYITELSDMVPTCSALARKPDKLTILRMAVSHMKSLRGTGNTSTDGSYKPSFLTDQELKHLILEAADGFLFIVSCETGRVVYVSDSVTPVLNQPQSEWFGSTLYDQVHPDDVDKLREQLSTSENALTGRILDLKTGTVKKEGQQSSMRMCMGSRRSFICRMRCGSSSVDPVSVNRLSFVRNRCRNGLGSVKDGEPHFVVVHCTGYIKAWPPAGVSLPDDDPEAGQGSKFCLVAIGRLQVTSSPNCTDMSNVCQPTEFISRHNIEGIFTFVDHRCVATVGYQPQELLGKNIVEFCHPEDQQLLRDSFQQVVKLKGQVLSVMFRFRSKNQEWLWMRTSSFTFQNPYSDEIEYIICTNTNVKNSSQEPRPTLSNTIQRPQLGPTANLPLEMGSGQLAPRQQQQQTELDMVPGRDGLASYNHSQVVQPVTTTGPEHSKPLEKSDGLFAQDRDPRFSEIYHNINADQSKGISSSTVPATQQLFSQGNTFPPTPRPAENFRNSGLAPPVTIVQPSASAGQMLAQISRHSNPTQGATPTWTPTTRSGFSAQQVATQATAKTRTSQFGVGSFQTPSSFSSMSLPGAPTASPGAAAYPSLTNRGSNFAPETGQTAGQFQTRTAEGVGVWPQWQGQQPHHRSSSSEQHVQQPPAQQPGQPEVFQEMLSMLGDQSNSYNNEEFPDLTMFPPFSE

B1: decoy 895/896 (dsDNA)
DNA 1: CACCAGCGTACGTGCCTCAGG
DNA 2: CCTGAGGCACGTACGCTGGTG
B1 was tested, and the binding signal was 1.13 ratio.
